# Data published in US20230080842A1 (WUHAN YZY BIOPHARMA, published 2023).
# B1: ElotuzumAb (antibody, human IgG1, kappa, V domains shown)
# VH: EVQLVESGGGLVQPGGSLRLSCAASGFDFSRYWMSWVRQAPGKGLEWIGEINPDSSTINYAPSLKDKFIISRDNAKNSLYLQMNSLRAEDTAVYYCARPDGNYWYFDVWGQGTLVTVSS
# VL: DIQMTQSPSSLSASVGDRVTITCKASQDVGIAVAWYQQKPGKVPKLLIYWASTRHTGVPDRFSGSGSGTDFTLTISSLQPEDVATYYCQQYSSYPYTFGQGTKVEIKR
# notes: anti-SLAMF7 monoclonal antibody, human IgG1 constant domains, kappa
# B2: Y316-A1 (bispecific antibody)
# chain: EVQLVESGGGLVQPGGSLRLSCAASGFDFSRYWMSWVRQAPGKGLEWIGEINPDSSTINYAPSLKDKFIISRDNAKNSLYLQMNSLRAEDTAVYYCARPDGNYWYFDVWGQGTLVTVSSGGGGSGGGGSGGGGSDIQMTQSPSSLSASVGDRVTITCKASQDVGIAVAWYQQKPGKVPKLLIYWASTRHTGVPDRFSGSGSGTDFTLTISSLQPEDVATYYCQQYSSYPYTFGQGTKVEIKGGGGSASEVQLVESGGGVVRPGGSLRLSCAASGFTFDDYGMSWVRQAPGKGLEWVSGINWNGGSTGYADSVKGRFTISRDNAKNSLYLQMNSLRAEDTAVYYCARGRSLLFDYWGQGTLVTVSRGGGGSGGGGSGGGGSSELTQDPAVSVALGQTVRITCQGDSLRSYYASWYQQKPGQAPVLVIYGKNNRPSGIPDRFSGSSSGNTASLTITGAQAEDEADYYCNSRDSSGNHVVFGGGTKLTVLDKTHTCPPCPAPPVAGPSVFLFPPKPKDTLMISRTPEVTCVVVDVSHEAPEVQFNWYVDGVEVHNAKTKPREEQFNSTFRVVSVLTVVHQDWLNGKEYKCKVSNKGLPAPIEKTISKTKGQPREPQVYTLPPSRDELTKNQVSLTCLVKGFYPSDIAVEWESNGQPENNYKTTPPVLDSDGSFFLYSKLTVDKSRWQQGNVFSCSVMHEALHNHYTQKSLSLSPGK
# notes: structure 3 Tandem-ScFv-Fc, A series, two identical fusion peptides; scFv Elotuzumab (anti-SLAMF7), scFv NM3E2 (anti-CD16)
# B3: Y416-B1 (bispecific antibody, human IgG1, kappa)
# light: EVQLVESGGGLVQPGGSLRLSCAASGFDFSRYWMSWVRQAPGKGLEWIGEINPDSSTINYAPSLKDKFIISRDNAKNSLYLQMNSLRAEDTAVYYCARPDGNYWYFDVWGQGTLVTVSSGGGGSGGGGSGGGGSSELTQDPAVSVALGQTVRITCQGDSLRSYYASWYQQKPGQAPVLVIYGKNNRPSGIPDRFSGSSSGNTASLTITGAQAEDEADYYCNSRDSSGNHVVFGGGTKLTVLRTVAAPSVFIFPPSDEQLKSGTASVVCLLNNFYPREAKVQWKVDNALQSGNSQESVTEQDSKDSTYSLSSTLTLSKADYEKHKVYACEVTHQGLSSPVTKSFNRGEC
# heavy: DIQMTQSPSSLSASVGDRVTITCKASQDVGIAVAWYQQKPGKVPKLLIYWASTRHTGVPDRFSGSGSGTDFTLTISSLQPEDVATYYCQQYSSYPYTFGQGTKVEIKGGGGSGGGGSGGGGSEVQLVESGGGVVRPGGSLRLSCAASGFTFDDYGMSWVRQAPGKGLEWVSGINWNGGSTGYADSVKGRFTISRDNAKNSLYLQMNSLRAEDTAVYYCARGRSLLFDYWGQGTLVTVSRASTKGPSVFPLAPSSKSTSGGTAALGCLVKDYFPEPVTVSWNSGALTSGVHTFPAVLQSSGLYSLSSVVTVPSSSLGTQTYICNVNHKPSNTKVDKKVEPKSCDKTHTCPPCPAPPVAGPSVFLFPPKPKDTLMISRTPEVTCVVVDVSHEAPEVQFNWYVDGVEVHNAKTKPREEQFNSTFRVVSVLTVVHQDWLNGKEYKCKVSNKGLPAPIEKTISKTKGQPREPQVYTLPPSRDELTKNQVSLTCLVKGFYPSDIAVEWESNGQPENNYKTTPPVLDSDGSFFLYSKLTVDKSRWQQGNVFSCSVMHEALHNHYTQKSLSLSPGK
# B4: Y216-A1 (bispecific antibody, human IgG1, kappa)
# light: DIQMTQSPSSLSASVGDRVTITCKASQDVGIAVAWYQQKPGKVPKLLIYWASTRHTGVPDRFSGSGSGTDFTLTISSLQPEDVATYYCQQYSSYPYTFGQGTKVEIKRTVAAPSVFIFPPSDEQLKSGTASVVCLLNNFYPREAKVQWKVDNALQSGNSQESVTEQDSKDSTYSLSSTLTLSKADYEKHKVYACEVTHQGLSSPVTKSFNRGEC
# heavy: EVQLVESGGGLVQPGGSLRLSCAASGFDFSRYWMSWVRQAPGKGLEWIGEINPDSSTINYAPSLKDKFIISRDNAKNSLYLQMNSLRAEDTAVYYCARPDGNYWYFDVWGQGTLVTVSSASTKGPSVFPLAPSSKSTSGGTAALGCLVKDYFPEPVTVSWNSGALTSGVHTFPAVLQSSGLYSLSSVVTVPSSSLGTQTYICNVNHKPSNTKVDKKVEPKSCDKTHTCPPCPAPPVAGPSVFLFPPKPKDTLMISRTPEVTCVVVDVSHEAPEVQFNWYVDGVEVHNAKTKPREEQFNSTFRVVSVLTVVHQDWLNGKEYKCKVSNKGLPAPIEKTISKTKGQPREPQVYTLPPSRDELTKNQVSLTCLVKGFYPSDIAVEWESNGQPENNYKTTPPVLDSDGSFFLYSKLTVDKSRWQQGNVFSCSVMHEALHNHYTQKSLSLSPGAGGGGSGGGGSGGGGSGEVQLVESGGGVVRPGGSLRLSCAASGFTFDDYGMSWVRQAPGKGLEWVSGINWNGGSTGYADSVKGRFTISRDNAKNSLYLQMNSLRAEDTAVYYCARGRSLLFDYWGQGTLVTVSRGGGGSGGGGSGGGGSSELTQDPAVSVALGQTVRITCQGDSLRSYYASWYQQKPGQAPVLVIYGKNNRPSGIPDRFSGSSSGNTASLTITGAQAEDEADYYCNSRDSSGNHVVFGGGTKLTVL
# notes: structure 2 IgG(H)-ScFv, A series; IgG Elotuzumab (anti-SLAMF7), scFv NM3E2 (anti-CD16)
# B5: Y216-B1 (bispecific antibody, human IgG1, kappa)
# light: B4 light
# heavy: EVQLVESGGGLVQPGGSLRLSCAASGFDFSRYWMSWVRQAPGKGLEWIGEINPDSSTINYAPSLKDKFIISRDNAKNSLYLQMNSLRAEDTAVYYCARPDGNYWYFDVWGQGTLVTVSSASTKGPSVFPLAPSSKSTSGGTAALGCLVKDYFPEPVTVSWNSGALTSGVHTFPAVLQSSGLYSLSSVVTVPSSSLGTQTYICNVNHKPSNTKVDKKVEPKSCDKTHTCPPCPAPPVAGPSVFLFPPKPKDTLMISRTPEVTCVVVDVSHEAPEVQFNWYVDGVEVHNAKTKPREEQFNSTFRVVSVLTVVHQDWLNGKEYKCKVSNKGLPAPIEKTISKTKGQPREPQVYTLPPSRDELTKNQVSLTCLVKGFYPSDIAVEWESNGQPENNYKTTPPVLDSDGSFFLYSKLTVDKSRWQQGNVFSCSVMHEALHNHYTQKSLSLSPGAGGGGSGGGGSGGGGSGSELTQDPAVSVALGQTVRITCQGDSLRSYYASWYQQKPGQAPVLVIYGKNNRPSGIPDRFSGSSSGNTASLTITGAQAEDEADYYCNSRDSSGNHVVFGGGTKLTVLGGGGSGGGGSGGGGSEVQLVESGGGVVRPGGSLRLSCAASGFTFDDYGMSWVRQAPGKGLEWVSGINWNGGSTGYADSVKGRFTISRDNAKNSLYLQMNSLRAEDTAVYYCARGRSLLFDYWGQGTLVTVSR
# notes: structure 2 IgG(H)-ScFv, B series; IgG Elotuzumab (anti-SLAMF7), scFv NM3E2 (anti-CD16)
# Molecular target: T1, Human SLAMF7 (human, UniProt Q9NQ25 23-226)
# T1 construct: also called SLAMF7 antigen; not shown: His tag
# Assay: ELISA, plate coated with His-tagged antigen
# Protocol: 2) addition of antibody: according to the experimental design, operation was performed at room temperature, and the antibody was diluted in gradient with 1% BSA in PBS. […] The diluted antibody was added into wells of microtiter plate at 200 μl/well, incubated at room temperature for 2h, and then the supernatant was discarded;
row,Binder,EC50 [pM]
1,B1,628
2,B2,9180
3,B3,5590
4,B4,715
5,B5,499
